Reference: PMC3430601, “Characterization of β-N-acetylhexosaminidase (LeHex20A), a member of glycoside hydrolase family 20, from Lentinula edodes (shiitake mushroom)” (AMB Express, 2012)

Experiments:
purified protein [1] = substrate: CC(=O)N[C@H]1[C@H](Oc2ccc([N+](=O)[O-])cc2)O[C@H](CO)[C@@H](O)[C@@H]1O; experiment: purified protein; format: biochemical, Lentinula edodes; conditions: 20 mM sodium acetate pH 4.2, 37 °C, 15 min
purified protein [2] = substrate: CC(=O)N[C@H]1[C@H](Oc2ccc([N+](=O)[O-])cc2)O[C@H](CO)[C@H](O)[C@@H]1O; experiment: purified protein; format: biochemical, Lentinula edodes; conditions: 20 mM sodium acetate pH 4.2, 37 °C, 15 min

B1: LeHex20A (Lentinula edodes) (protein)
chain: LWPLPTDFSTGTAALTLASDFDIDISAIPNPPQDLLDAISRTKGYLQTDQLEALVVDRGASYNQSLQNASSLVSLVLSYDSGVAGEPTSISEEAIDDIDSRVEGYTLTVPEDGSAATIKANSTLGLFRGLTTFGQLWYDLNNTTYTIEAPIAITDSPVFPYRGFMLDTARNYFPVSDILRTLDAMSWVKMTTFHWHMVDSQSFPLEVPEFPELSLNGAYGPSLVYSTNDVQTIVSYANARGIDVLPEIDTPGHTAIIAQAYPEHVACPGATPWATYANEPPAGQLRFANANTTNFTASLISSVSARFPGKYFSTGGDELNTECYAIDESTQADLNTTGKTLEQALDTFTQTVQSVLEDSGKTPVVWEEMVLDFNLTLSNNTIVMVWISSADAAAVADKGFRLVQAPSDYFYLDCGAGGWVGANPSGNSWCDPFKTWQYAYSFDPVANLTDAQAKLVIGGEHLLWTEQSHASNLDSIVWPRAAASAELFWSGPGGNISEALPRLHDVAFRMTQRGVGAIALQPLWCALRPGVCDLTA
notes: native, purified from fruiting bodies; secreted mature form, 17-residue signal peptide predicted (ORF 553 aa, mature 536 aa); N-terminus LWPLPTDFSTGTAAL; 79 kDa on SDS-PAGE (58 kDa calculated, glycosylated); GH20
- Km (purified protein [1]): 340 ± 10 µM
- kcat (purified protein [1]): 335 ± 10 s⁻¹
- kcat/Km (purified protein [1]): 983000 M⁻¹ s⁻¹
- Km (purified protein [2]): 430 ± 30 µM
- kcat (purified protein [2]): 177 ± 8 s⁻¹
- kcat/Km (purified protein [2]): 411000 M⁻¹ s⁻¹
